The target in assay [1] is OT-I TCR. Put plainly: cell-based or functional assay.
For assay [2], the target named is OT-I TCR. As to the kind of experiment: cell-based or functional assay. The source holds these as a separate data set.

In the assay with OT-I TCR [1], “OVA-MHCI Bait-CD3Zeta Fully Live CAR (peptide-MHC)” showed a proportion of surviving OT-I cells after 18 hours of co-culture of 32.1%, a proportion of surviving OT-I cells after 36 hours of co-culture of 19.5% and a proportion of surviving OT-I cells after 60 hours of co-culture of 0.69%.

B1: OVA-MHCI Bait-SIINFEKL CAR (peptide-MHC)
chain: SIINFEKLGGGGSGGGGSGGGGSIQKTPQIQVYSRHPPENGKPNILNCYVTQFHPPHIEIQMLENGKKIPKVEMSDMSFSKDWSFYILAHTEFTPTETDTYACRVKHASMAEPKTVYWDRDMGGGGSGGGGSGGGGSGGGGSGPHSLRYFVTAVSRPGLGEPRYMEVGYVDDTEFVRFDSDAENPRYEPRARWMEQEGPEYWERETQKAKGNEQSFRVDLRTLLGYYNQSKGGSHTIQVISGCEVGSDGRLLRGYQQYAYDGCDYIALNEDLKTWTAADMAALITKHKWEQAGEAERLRAYLEGTCVEWLRRYLKNGNATLLRTDSPKAHVTHHSRPEDKVTLRCWALGFYPADITLTWQLNGEELIQDMELVETRPAGDGTFQKWASVVVPLGKEQYYTCHVYHQGLPEPLTLRWEIEFMYPPPYLDNERSNGTIIHIKEKHLCHTQSSPKLFWALVVVAGVLFCYGLLVTVALCVIWTNSRRNRGGQSDYMNMTPRRPGLTRKPYQPYAPARDFAAYRPRAKFSRSAETAANLQDPNQLFNELNLGRREEFDVLEKKRARDPEMGGKQQRRRNPQEGVYNALQKDKMAEAYSEIGTKGERRRGKGHDGLFQGLSTATKDTFDALHMQTLAPR
As for B1, in the assay with OT-I TCR [2], the IFN-gamma positive bait CAR T cells in the presence of OT-I target cells is 11.4%, the IL-2 positive bait CAR T cells in the presence of OT-I cells was determined as 14.9%, the OT-I cells remaining in the population after 48 hours of co-culture (competitive survival assay) stood at 5.01% and the activation of bait CAR T cells (expression of CD107a) in the presence of OT-I T cells turned out to be 24.8%. In the assay with OT-I TCR [2], this molecule yielded a degranulation of OT-I T cells (CD107a-positive) in co-culture with bait CAR T cells of 80.4%.

The values above are taken from patent publication US20250304913A1.
